T1: p40 subunit of hrIL-12 (hrp40 monomer) (human, UniProt P29460 23-328)
T1 construct: also called p40 R&D
T1 sequence (looked up): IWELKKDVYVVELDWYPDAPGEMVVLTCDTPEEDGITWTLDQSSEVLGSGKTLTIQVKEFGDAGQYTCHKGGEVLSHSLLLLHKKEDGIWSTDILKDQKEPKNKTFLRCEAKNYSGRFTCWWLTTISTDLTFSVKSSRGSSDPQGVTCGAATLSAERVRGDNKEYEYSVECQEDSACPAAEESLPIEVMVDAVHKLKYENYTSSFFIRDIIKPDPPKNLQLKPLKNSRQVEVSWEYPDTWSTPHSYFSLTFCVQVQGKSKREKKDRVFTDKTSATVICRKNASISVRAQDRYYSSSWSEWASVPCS

T2: recombinant human IL-12 (hrIL-12), produced at Centocor (human, UniProt P29459 23-219; P29460 23-328)
T2 construct: also called IL-12 CNTO
T2 sequence (looked up) 1: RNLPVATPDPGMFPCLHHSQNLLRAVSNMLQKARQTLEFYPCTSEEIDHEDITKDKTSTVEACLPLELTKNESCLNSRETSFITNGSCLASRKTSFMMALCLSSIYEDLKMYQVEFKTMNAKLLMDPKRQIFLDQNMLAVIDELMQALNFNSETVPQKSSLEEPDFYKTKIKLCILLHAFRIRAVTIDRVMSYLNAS
T2 sequence (looked up) 2: T1 sequence (looked up)

T3: murine p40 (murine, UniProt P43432 23-335)
T3 sequence (looked up): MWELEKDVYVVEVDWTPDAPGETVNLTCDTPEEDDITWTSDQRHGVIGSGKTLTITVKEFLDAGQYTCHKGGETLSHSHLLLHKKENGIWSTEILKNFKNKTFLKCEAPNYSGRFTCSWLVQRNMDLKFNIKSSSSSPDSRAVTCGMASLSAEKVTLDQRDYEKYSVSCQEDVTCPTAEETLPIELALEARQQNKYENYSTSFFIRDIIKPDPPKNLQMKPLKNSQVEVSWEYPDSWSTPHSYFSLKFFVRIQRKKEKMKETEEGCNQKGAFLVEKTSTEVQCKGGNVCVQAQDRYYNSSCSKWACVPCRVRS

T4: mIL-12 (Disulfide-linked, glycosylated heterodimer; the letters do not carry this.)
T4 construct: also called murine IL-12; copies: 1 + 1
T4 alpha: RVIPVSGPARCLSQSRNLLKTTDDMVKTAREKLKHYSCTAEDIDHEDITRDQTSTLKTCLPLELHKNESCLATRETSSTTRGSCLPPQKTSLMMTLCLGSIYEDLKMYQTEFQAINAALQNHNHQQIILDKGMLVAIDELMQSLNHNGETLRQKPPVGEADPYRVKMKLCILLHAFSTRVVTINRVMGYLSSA
T4 beta: T3 sequence (looked up)

T5: murine IL-23 (murine, UniProt Q9EQ14 22-196; P43432 23-335)
T5 sequence (looked up) 1: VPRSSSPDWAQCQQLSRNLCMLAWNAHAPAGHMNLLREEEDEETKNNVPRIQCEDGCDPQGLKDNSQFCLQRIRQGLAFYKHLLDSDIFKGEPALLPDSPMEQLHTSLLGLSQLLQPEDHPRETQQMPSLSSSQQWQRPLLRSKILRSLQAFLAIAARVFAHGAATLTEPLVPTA
T5 sequence (looked up) 2: T3 sequence (looked up)

B1: MOR05049 mAb (antibody, human IgG1, V domains shown)
VH: QVELVESGGGLVQPGGSLRLSCAASGFTFSSFGMSWVRQAPGKGLEWVSGIEHKYLSYTTHYAASVKGRFTISRDNSKNTLYLQMNSLRAEDTAVYYCARYWGTPYLMQFDNWGQGTLVTVSS
VL: DIALTQPASVSGSPGQSITISCTGTSSDVGGYNSVSWYQQHPGKAPKLMIYSVSSRPSGVSNRFSGSKSGNTASLTISGLQAEDEADYYCSSYDTNKPLVVFGGGTKLTVL
notes: human IgG1/lambda
B2: MOR04083 mAb (antibody, human IgG1, V domains shown)
VH: QVELVQSGAEVKKPGSSVKVSCKASGGTFSNYAISWVRQAPGQGLEWMGGIIPMFGYANYAQKFQGRVTITADESTSTAYMELSSLRSEDTAVYYCARDIYAGMDVWGQGTLVTVSS
VL: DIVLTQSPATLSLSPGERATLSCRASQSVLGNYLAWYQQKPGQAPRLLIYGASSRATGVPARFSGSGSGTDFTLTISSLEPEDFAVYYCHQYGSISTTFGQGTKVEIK
notes: human IgG1/kappa; also called 4083 (κ)
B3: MOR04190 mAb (antibody, human IgG1, V domains shown)
VH: QVELVQSGAEVKKPGSSVKVSCKASGGTFSSNYISWVRQAPGQGLEWMGGIIPIFGHANYAQKFQGRVTITADESTSTAYMELSSLRSEDTAVYYCARSKKGMYGGWTYPLMMFDLWGQGTLVTVSS
VL: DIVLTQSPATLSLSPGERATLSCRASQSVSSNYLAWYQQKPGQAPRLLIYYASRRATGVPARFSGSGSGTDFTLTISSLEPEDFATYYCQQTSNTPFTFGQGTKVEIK
notes: human IgG1/kappa; also called 4190 (κ); MOR0190
B4: human IL-23R-Fc fusion protein (Fc fusion, UniProt Q5VWK5 24-355, looked up, not shown: a dimerising Fc or GST)
chain: GITNINCSGHIWVEPATIFKMGMNISIYCQAAIKNCQPRKLHFYKNGIKERFQITRINKTTARLWYKNFLEPHASMYCTAECPKHFQETLICGKDISSGYPPDIPDEVTCVIYEYSGNMTCTWNAGKLTYIDTKYVVHVKSLETEEEQQYLTSSYINISTDSLQGGKKYLVWVQAANALGMEESKQLQIHLDDIVIPSAAVISRAETINATVPKTIIYWDSQTTIEKVSCEMRYKATTNQTWNVKEFDTNFTYVQQSEFYLEPNIKYVFQVRCQETGKRYWQPWSSLFFHKTPETVPQVTSKAFQHDTWNSGLTVASISTGHLTSDNRGDIG
notes: extracellular domain; also called hIL-23R; soluble IL-23R
B5: recombinant human IL-23 (hrIL-23), produced at Centocor (ligand)
chain 1: RAVPGGSSPAWTQCQQLSQKLCTLAWSAHPLVGHMDLREEGDEETTNDVPHIQCGDGCDPQGLRDNSQFCLQRIHQGLIFYEKLLGSDIFTGEPSLLPDSPVAQLHASLLGLSQLLQPEGHHWETQQIPSLSPSQPWQRLLLRFKILRSLQAFVAVAARVFAHGAATLSP
chain 2: T1 sequence (looked up)
notes: p19-p40 heterodimer; also called rhIL-23; huIL-23

What was measured:
[1] = target: B5; test: cell-based or functional assay
[2] = target: B5; test: blocking ELISA: 20 ng/ml IL-23-bt. with titrated mAb, binding to plate-immobilized IL-23R-Fc is blocked
[3] = target: T1, p40 subunit of hrIL-12 (hrp40 monomer); test: cytokine capture ELISA: mAbs coated onto plates, cytokines at 100 ng/ml, binding detected with mAb12B-biotin
Procedure: (§1) Purified mouse anti-hIL-23 mAbs were evaluated in cytokine capture ELISA to determine their antigen subunit specificity. Briefly, IL-23 mAbs were coated onto plates and incubated with 100 ng/ml) hrIL-23, hrIL-12, and hrp40, respectively. Following incubation with biotinylated anti-p40 mAb, the binding was detected using HRP—conjugated streptavidin. An anti-p40 mAb and an anti-IL-12 mAb (20C2, Catalog No. 555065, BD Pharmingen, San Diego, Calif.) with known specificity were used as controls.

[4] = target: T2, recombinant human IL-12 (hrIL-12), …; test: as above
Procedure: as §1

murine p40 = target: T3, murine p40; test: cytokine capture ELISA: mAbs coated onto plates, cytokines at 100 ng/ml; murine p40 containing cytokine detected with C17.8-biotin; target printed as m(p40)2
mIL-12 = target: T4, mIL-12; test: cytokine capture ELISA: mAbs coated onto plates, cytokines at 100 ng/ml; murine p40 containing cytokine detected with C17.8-biotin
murine IL-23 = target: T5, murine IL-23; test: as above
[5] = target: B5; test: biotinylated hrIL-23 on immobilized IL-23R-Fc
Procedure: (§2) In this experiment, a human IL-23R-Fc fusion protein was immobilized on a plate. This fusion protein consists of the extracellular domain of human IL-23 receptor fused to a human Fc segment. Biotinylated hrIL-23 was added to the plate either alone or after preincubation with individual IL-23p19 mAbs. Soluble IL-23R (IL-23R-Fc) was used as a positive control. IL-23 binding was detected with HRP-conjugated streptavidin. […] There was no inhibition by B21M, a mAb with unrelated specificity. […] IL-23 binding was inhibited by the p40 neutralizing mAb CNTO 1275 (same as mAb 12A), as expected. […] CNTO 1275 again served as a positive control.

[6] = target: B5; test: blocking ELISA (BRBA): biotinylated IL-23 with titrated soluble IL-23R-Fc, binding to plate-immobilized IL-23R-Fc
Procedure: as §2

[7] = target: B5; test: hrIL-23/hIL-23R competition assay, soluble receptor as reference
[8] = target: T6, IL-23R and IL-12Rβ1 naturally expressed on TALL-104 cells (human, UniProt Q5VWK5 24-629; P42701 24-662); test: flow cytometry on TALL-104 cells
T6 construct: whole, on cells

Binder	IC50, inhibition of IL-17 production [1]	binding result [3]	binding result [4]	binding result (murine p40)	binding result (mIL-12)	binding result (murine IL-23)	fold weaker potency than soluble IL-23R-Fc [5]	other results
B1	0.0162 mg/L							IC50 (read off the curve) [2]: ~0.1 mg/L
B2	1.4 mg/L	no binding (tested: 100 ng/ml)	no binding (tested: 100 ng/ml)	no binding (tested: 100 ng/ml)	no binding (tested: 100 ng/ml)	no binding (tested: 100 ng/ml)	~3 fold	
B3	0.218 mg/L	no binding (tested: 100 ng/ml)	no binding (tested: 100 ng/ml)	no binding (tested: 100 ng/ml)	no binding (tested: 100 ng/ml)	no binding (tested: 100 ng/ml)	~3 fold	
B4								IC50 (read off the curve) [6]: ~0.05 mg/L; IC50 [7]: 1.8 nM
B5								binding result [8]: binds

— patent US20180291096A1 (Janssen / Centocor, published 2018)
